Reference: the supplement of paper PMC10567573

B1: SOAT1 (parent)
chain: GVLILFLTFFAFLHCWLNAFAEML
B2: TIA1 (parent)
chain: TYECRCIGEEKEMWNFGEKYARF

Variants of: B1
Assay: protein stability index of a GFP-peptide fusion (GPS, HEK-293T) (PSI 1-6); higher = more stable
Details: c terminus: a fixed tail appended
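Note: lentivirally expressed fusions sorted by FACS into six bins by GFP to DsRed ratio, PSI derived from sequencing read proportions per bin multiplied by bin number.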

Protein stability index, by site and new letter:
L24: E 3.41 | Y 2.88 | P 2.68 | K 3.06 | R 2.33 | I 2.63 | V 2.75 | M 2.72 | G 3.4 | T 3.04
C15: V 2 | A 2.75 | M 3.37 | K 3.47 | R 1.95 | W 3.12 | H 1.99
L3: K 1.94 | S 3.06 | V 3.82 | Y 2.94 | G 2.85 | F 2.69 | C 3.65 | T 3.86 | R 2.98
M23: V 2.08 | Y 2.54 | F 2.67 | H 2.55 | G 2.18 | P 3.44 | R 2.77 | Q 2.73 | L 2.88 | C 3.08
L17: Q 2.24 | T 2.88 | N 2.84 | R 3.44 | P 2.22 | Y 3.42 | M 2.95 | A 2.74 | H 1.87 | E 3.02
E22: A 1.99 | D 2.19 | G 2.16 | Q 2.63 | R 1.7 | P 3.59 | W 3.25 | F 3.34 | V 3.24
F10: A 3.62 | L 2.24 | N 3.82 | M 1.67 | C 2.63 | I 2.54 | K 2.35
A11: Q 2.55 | P 3.29 | Y 2.09 | D 2.82 | I 3.38 | G 1.15 | C 1.84 | V 1.88 | W 1.64 | M 3.5 | K 2.37 | S 2.69
L13: Y 2.48 | F 2.74 | H 2.45 | I 2.17 | D 3.39 | N 3.07 | K 3.57 | A 4.05 | P 2.6 | Q 4.15 | C 2.83 | R 2.96
H14: W 2.17 | P 2.06 | K 2.17 | Y 2.09 | C 2.17 | T 2.06 | R 2.68
L5: Y 3.59 | M 1.72 | E 3.38 | H 3.32 | A 2.42 | T 2.34
T8: G 2.61 | Q 1.69 | H 3.09 | N 2.38 | V 2.33 | E 2.8
A21: I 2.93 | S 1.84 | Y 1.84 | L 1.4 | Q 3.1 | T 2.29 | M 3.62
G1: T 3.35 | N 3.26 | M 2.94 | K 2.23 | R 4.47 | C 2.93 | Q 2.35 | S 4.28 | H 3.67
L7: M 2.38 | E 3.09 | K 3.37 | W 4.58 | F 1.85 | R 3.36
F12: N 3 | H 2.43 | I 2.6 | D 2.27 | Q 2.71 | E 3.48 | S 3.35 | L 2.09 | R 2.64 | V 1.84
N18: Q 2.81 | S 2.51 | M 2.78 | C 1.59 | I 2.85 | K 2.48 | D 1.71 | R 2.55
I4: Q 4.98 | L 2.76 | E 2.23 | W 2.43 | F 1.75 | T 3.27 | K 1.43 | G 4.32 | V 2.92 | M 3.03 | H 1.85
A19: M 3.03 | W 1.73 | S 2.83 | R 1.64 | Y 2.29 | N 2.8
F6: T 2.02 | P 2.63 | S 2.73 | A 3.95 | H 2.63 | I 2.63 | G 1.72 | Q 3.85 | R 3.83 | V 3.25
F9: C 3.31 | W 3.04 | E 3.8 | D 3.34 | P 3.94 | M 3.56 | Y 2.83
F20: D 3.92 | M 2.85 | P 2.93 | T 1.98 | A 3.08 | L 2.56 | Y 2.9 | V 3.21 | N 2.01
W16: V 3.12 | N 2.59 | Q 2.55 | M 3.65 | E 3.24 | G 3.64 | T 3.45 | L 3.2 | A 2 | S 3.04 | K 2.19
V2: L 1.03 | K 2.31 | W 2.95 | N 1.42

Variants of: B2
Assay: as above
Details: c terminus: native

Protein stability index of substitutions, site by site:
T1: I 2.19 | P 3.63 | L 1.7 | Q 2.35 | V 1.8 | W 1.68 | N 3.21 | E 4.38 | G 2.27 | R 1.68 | S 2.51
I7: V 1.76 | T 2.98 | P 3.87 | S 2.16 | Q 3.02 | R 1.8
N15: D 2.04 | E 2.37 | Q 1.42 | M 1.43 | S 2.13
E12: K 1.4 | S 2.21 | I 1.39 | C 2.08 | Q 2.3 | L 2.33
G8: S 1.98 | I 2.04 | A 2.54
Y20: F 2.86 | I 1.7 | P 1.11
R5: H 2.62 | K 2.3 | V 2.46 | W 1.98
W14: F 2.39 | H 2.49 | G 2.88 | Y 2.65 | P 2.31
Y2: G 4.38 | I 3.31 | V 3.16 | T 4.18
M13: I 2.07 | W 3.09
F23: R 1.52 | P 2.69 | H 1.83 | Y 2.18 | E 3.42
C4: T 2.31 | P 3.81 | S 2.01 | F 2.28 | N 2.31 | W 1.91
G17: M 1.86 | L 2.35 | I 1.16 | V 2.03 | R 2.1 | E 2.16 | K 1.98
C6: D 4.2 | I 2.89 | T 3.1
K11: M 1.88 | Q 1.84 | I 1.3 | A 3.42 | H 1.78 | W 1.83 | E 2.54 | R 1.57
E18: C 2.41 | P 1.65 | T 1.67 | F 2.24 | L 1.94 | I 2.3
A21: G 2.11 | L 2.19 | P 3.79 | R 2.71 | H 3.06 | C 1.89
K19: E 3.18 | P 3.04 | C 1.85 | M 1.29 | S 2.27
R22: S 2.29 | F 2.23 | Q 2.92 | M 1.51 | L 1.01 | C 1.36 | W 1.6 | E 3.2
E3: C 3.65 | H 1.8 | L 2.42 | D 3.24 | Q 2.61 | N 1.98
E9: C 2.1 | H 1.74 | L 3.02 | N 2.29 | F 1.81 | W 1.74 | I 1.89 | K 2.49 | A 1.85
F16: S 2.66 | R 2.14 | K 2.44 | H 2.26 | I 1.57
E10: N 1.83 | A 2.85 | L 2.25 | G 1.86 | C 2.25 | D 1.99 | S 2.23 | H 2.49
